Data reported in patent publication US20230203124A1.

Legend:
[1] = target: mutated ALK 25-AA long peptide on autologous B cells (HLA-DQB1*0601) (human)
[2] = target: mutated ERBB2IP 25-AA long peptide presented by HLA-DQB1*0601 (human)
[3] = target: wild-type ERBB2IP 25-AA long peptide on autologous B cells (HLA-DQB1*0601) (human)

## Mock-transduced autologous open-repertoire peripheral blood T cells (cells without a defined receptor)
[1]
  % IFN-γ+/mTCRβ- cells, intracellular IFN-γ by flow cytometry: 1%
[2]
  % IFN-γ+/mTCRβ- cells, intracellular IFN-γ by flow cytometry: 0%
[3]
  % IFN-γ+/mTCRβ- cells, intracellular IFN-γ by flow cytometry: 0%
